Values quoted from earlier work in article PMC4319847.

What was measured:
[1] = target: SV40 NLS NLS (Simian virus 40) (UniProt P03070)
[2] = target: Myc NLS NLS (Homo sapiens) (UniProt P01106)
Chain of Myc NLS NLS (Homo sapiens) (P01106 whole entry, looked up): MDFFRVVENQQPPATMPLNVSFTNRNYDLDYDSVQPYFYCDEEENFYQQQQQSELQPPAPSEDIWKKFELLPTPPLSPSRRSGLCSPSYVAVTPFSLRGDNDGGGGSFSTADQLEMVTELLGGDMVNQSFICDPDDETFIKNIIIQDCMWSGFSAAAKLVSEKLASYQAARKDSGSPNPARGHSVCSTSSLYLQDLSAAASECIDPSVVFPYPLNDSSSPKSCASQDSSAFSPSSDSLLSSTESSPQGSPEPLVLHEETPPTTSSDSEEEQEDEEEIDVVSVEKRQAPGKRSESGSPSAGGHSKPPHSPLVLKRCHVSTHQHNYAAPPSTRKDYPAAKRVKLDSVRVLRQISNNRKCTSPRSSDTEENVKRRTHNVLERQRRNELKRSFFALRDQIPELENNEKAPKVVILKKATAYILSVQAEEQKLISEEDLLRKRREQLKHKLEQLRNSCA

Chain of yeast importin-α 89-530 (Q02821 89-530): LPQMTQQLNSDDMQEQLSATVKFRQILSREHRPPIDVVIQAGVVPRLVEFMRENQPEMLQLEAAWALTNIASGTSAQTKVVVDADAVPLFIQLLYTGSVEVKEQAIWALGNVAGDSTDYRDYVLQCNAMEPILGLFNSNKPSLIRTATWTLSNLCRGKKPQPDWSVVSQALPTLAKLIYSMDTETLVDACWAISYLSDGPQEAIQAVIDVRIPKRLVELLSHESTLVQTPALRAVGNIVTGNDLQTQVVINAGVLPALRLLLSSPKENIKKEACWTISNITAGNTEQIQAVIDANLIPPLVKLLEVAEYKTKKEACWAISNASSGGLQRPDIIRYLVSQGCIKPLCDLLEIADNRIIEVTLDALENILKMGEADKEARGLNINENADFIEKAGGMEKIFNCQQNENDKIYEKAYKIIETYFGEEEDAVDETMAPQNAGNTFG
Chain of SV40 NLS NLS (Simian virus 40) (P03070 whole entry, looked up): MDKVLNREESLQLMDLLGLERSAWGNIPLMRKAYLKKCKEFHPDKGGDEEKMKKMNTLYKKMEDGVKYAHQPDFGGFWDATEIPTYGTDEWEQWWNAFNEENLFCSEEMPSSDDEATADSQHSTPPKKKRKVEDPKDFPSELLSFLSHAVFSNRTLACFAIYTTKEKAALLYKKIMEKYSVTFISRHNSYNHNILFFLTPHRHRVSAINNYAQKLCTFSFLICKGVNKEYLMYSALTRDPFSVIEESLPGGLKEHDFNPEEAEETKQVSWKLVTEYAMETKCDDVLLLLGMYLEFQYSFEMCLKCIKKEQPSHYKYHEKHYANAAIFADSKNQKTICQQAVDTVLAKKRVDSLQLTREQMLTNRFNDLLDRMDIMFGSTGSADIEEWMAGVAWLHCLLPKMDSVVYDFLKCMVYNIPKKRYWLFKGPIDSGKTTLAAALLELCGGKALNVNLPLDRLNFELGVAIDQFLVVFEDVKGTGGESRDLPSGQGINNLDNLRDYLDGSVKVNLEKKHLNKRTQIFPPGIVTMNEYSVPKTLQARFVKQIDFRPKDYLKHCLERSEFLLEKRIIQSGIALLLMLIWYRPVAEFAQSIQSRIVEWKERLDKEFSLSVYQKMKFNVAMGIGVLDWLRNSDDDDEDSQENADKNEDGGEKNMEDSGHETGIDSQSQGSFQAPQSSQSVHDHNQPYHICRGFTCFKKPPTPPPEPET

Substance: yeast importin-α 89-530 (from UniProt Q02821)
- Kd [1]: 9 nM
- Kd [2]: 6 nM
